Source: patent US20260242735A1 (UNIVERSIT T BASEL, published 2026)

Columns and labels:
Experiment in all cases: BLI Octet, IgG captured on AHC, CD33 analyte;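 further: CD33 variants and wild type run as analyte at 5, 50 and 500 nM, 700 s association then 1200 s dissociation, buffer-only reference subtracted, global 1:1 fit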
[1] = molecular target: human CD33 extracellular region W22E (human, UniProt P20138 18-259)
[2] = molecular target: human CD33 extracellular region F21H (human, UniProt P20138 22-259)
[3] = molecular target: human CD33 extracellular region F21Q (human, UniProt P20138 22-259)
[4] = molecular target: human CD33 extracellular region W22S (human, UniProt P20138 18-259)
[5] = molecular target: human CD33 extracellular region F21S (human, UniProt P20138 22-259)
[6] = molecular target: human CD33 extracellular region N20H (human, UniProt P20138 21-259)
[7] = molecular target: human CD33 extracellular region W22R (human, UniProt P20138 18-259)
[8] = molecular target: human CD33 extracellular region F21V (human, UniProt P20138 22-259)
[9] = molecular target: human CD33 extracellular region N20D (human, UniProt P20138 21-259)
[10] = molecular target: human CD33 extracellular region F21N (human, UniProt P20138 22-259)
Chain of human CD33 extracellular region F21N (P20138 other isoform, or with tags, fused parts or gaps F21N F21N): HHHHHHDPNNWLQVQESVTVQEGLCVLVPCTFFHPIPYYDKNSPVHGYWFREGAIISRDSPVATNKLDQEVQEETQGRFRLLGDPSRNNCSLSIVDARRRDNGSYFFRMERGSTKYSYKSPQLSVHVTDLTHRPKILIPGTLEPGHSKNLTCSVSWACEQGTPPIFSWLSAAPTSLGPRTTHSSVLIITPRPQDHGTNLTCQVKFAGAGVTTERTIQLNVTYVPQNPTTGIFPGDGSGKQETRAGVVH

Chain of human CD33 extracellular region W22S (P20138 other isoform, or with tags, fused parts or gaps W22S W22S): as the sequence (P20138 other isoform, or with tags, fused parts or gaps F21N F21N) above, with N10F, W11S counted along it
Chain of human CD33 extracellular region F21H (P20138 other isoform, or with tags, fused parts or gaps F21H F21H): as the sequence (P20138 other isoform, or with tags, fused parts or gaps F21N F21N) above, with N10H counted along it
Chain of human CD33 extracellular region F21S (P20138 other isoform, or with tags, fused parts or gaps F21S F21S): as the sequence (P20138 other isoform, or with tags, fused parts or gaps F21N F21N) above, with N10S counted along it
Chain of human CD33 extracellular region W22R (P20138 other isoform, or with tags, fused parts or gaps W22R W22R): as the sequence (P20138 other isoform, or with tags, fused parts or gaps F21N F21N) above, with N10F, W11R counted along it
Chain of human CD33 extracellular region N20D (P20138 other isoform, or with tags, fused parts or gaps N20D N20D): as the sequence (P20138 other isoform, or with tags, fused parts or gaps F21N F21N) above, with N9D, N10F counted along it
Chain of human CD33 extracellular region F21Q (P20138 other isoform, or with tags, fused parts or gaps F21Q F21Q): as the sequence (P20138 other isoform, or with tags, fused parts or gaps F21N F21N) above, with N10Q counted along it
Chain of human CD33 extracellular region N20H (P20138 other isoform, or with tags, fused parts or gaps N20H N20H): as the sequence (P20138 other isoform, or with tags, fused parts or gaps F21N F21N) above, with N9H, N10F counted along it
Chain of human CD33 extracellular region F21V (P20138 other isoform, or with tags, fused parts or gaps F21V F21V): as the sequence (P20138 other isoform, or with tags, fused parts or gaps F21N F21N) above, with N10V counted along it
Chain of human CD33 extracellular region W22E (P20138 other isoform, or with tags, fused parts or gaps W22E W22E): as the sequence (P20138 other isoform, or with tags, fused parts or gaps F21N F21N) above, with N10F, W11E counted along it

| Binder | % WT binding [1] | % WT binding [2] | % WT binding [3] | % WT binding [4] | % WT binding [5] | % WT binding [6] | % WT binding [7] | % WT binding [8] | % WT binding [9] | % WT binding [10] |
| --- | --- | --- | --- | --- | --- | --- | --- | --- | --- | --- |
| Refmab #3 (antibody, human IgG1, V domains shown) VH: QVQLVQSGAEVKKPGSSVKVSCKASGYTFTDYNMHWVRQAPGQGLEWIGYIYPYNGGTGYNQKFKSKATITADESTNTAYMELSSLRSEDTAVYYCARGRPAMDYWGQGTLVTVSS VL: DIQMTQSPSSLSASVGDRVTITCRASESVDNYGISFMNWFQQKPGKAPKLLIYAASNQGSGVPSRFSGSGSGTDFTLTISSLQPDDFATYYCQQSKEVPWTFGQGTKVEIK | 0% | 0% | 0% | 20.1% | 0% | 0% | 0% | 0% | 0% | 0% |
| Refmab #4 (antibody, human IgG1, V domains shown) VH: QVQLVQSGAEVKKPGESVKVSCKASGYTFTNYGMNWVKQAPGQGLEWMGWINTYTGEPTYADKFQGRVTMTTDTSTSTAYMEIRNLGGDDTAVYYCARWSWSDGYYVYFDYWGQGTSVTVSS VL: DIVMTQSPDSLTVSLGERTTINCKSSQSVLDSSTNKNSLAWYQQKPGQPPKLLLSWASTRESGIPDRFSGSGSGTDFTLTIDSPQPEDSATYYCQQSAHFPITFGQGTRLEIK | 82.8% | 108% | 89% | 93% | 78.3% | 104% | 82.8% | 101% | 91.3% | 83% |
